Patent publication US20180155433A1 (GAMAMABS PHARMA, published 2018)

How the values were obtained:
[1] = molecular target: T1, human HER3-Fc (recombinant HER3 extracellular domain Fc fusion, R&D systems) (human, UniProt P21860 20-643); assay: ELISA, HER3-Fc coated at 50 ng per well, GMB301 from 3.3 nM to 6.5 pM, HRP anti-human F(ab')2 detection
T1 construct: extracellular domain; Bought reagent (R&D Systems); Coated on plates at 50 ng per well; not shown: Fc part of the bought fusion (R&D Systems)
T1 sequence (P21860 20-643): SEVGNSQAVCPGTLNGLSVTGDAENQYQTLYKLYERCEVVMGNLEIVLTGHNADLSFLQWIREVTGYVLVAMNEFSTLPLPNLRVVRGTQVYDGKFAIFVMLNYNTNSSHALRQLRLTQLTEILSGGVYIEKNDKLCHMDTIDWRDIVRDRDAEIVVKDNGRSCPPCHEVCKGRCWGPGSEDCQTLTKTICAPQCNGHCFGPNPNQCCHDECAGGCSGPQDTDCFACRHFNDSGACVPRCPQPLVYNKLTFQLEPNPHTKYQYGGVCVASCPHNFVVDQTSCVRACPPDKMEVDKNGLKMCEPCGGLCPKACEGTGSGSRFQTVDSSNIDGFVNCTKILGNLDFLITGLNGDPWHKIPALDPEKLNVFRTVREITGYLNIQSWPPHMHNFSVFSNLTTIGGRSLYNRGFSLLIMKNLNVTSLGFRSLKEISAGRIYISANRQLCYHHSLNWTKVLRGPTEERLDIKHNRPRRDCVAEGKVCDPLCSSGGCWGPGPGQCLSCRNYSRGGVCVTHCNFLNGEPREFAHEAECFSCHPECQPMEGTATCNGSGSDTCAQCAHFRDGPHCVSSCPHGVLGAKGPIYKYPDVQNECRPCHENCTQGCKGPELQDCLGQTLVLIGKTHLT
Protocol: GMB301 was incubated for 1 hour at 37° C. in Maxisorp® plates (Nunc) coated wells with 50 ng human HER3-Fc (recombinant HER3 extracellular domain Fc fusion, R&D systems).
Bound GMB301 antibody were detected by a conjugated HRP-F(ab′)2 goat anti human IgG F(ab′)2 specific (Interchim). After two hours at 37° C. and three washes with PBS-Tween₂₀ 0.5%, TMB (3,3,5,5-tetramethylbenzidine, Sigma) was used as substrate for detecting HRP activity and 1M H₂SO₄ was added to stop the reaction and plate was read at 450 nm.

[2] = molecular target: T2, Recombinant human HER3 extracellular domain (ECD) (human, UniProt P21860 20-643); assay: ELISA, recombinant human HER3 ECD coated at 50 ng/well, antibody from 3 nM to 6.5 pM, four-parameter fit
T2 construct: extracellular domain; Bought from R&D Systems; also called recombinant human HER3 ECD; HER3 receptor
T2 sequence (P21860 20-643): as above
Protocol: Nunc Maxisorp plates were coated with 50 ng/well recombinant human HER3 ECD for 16 hours at 4° C. and were blocked with 2% BSA in PBS. Anti-HER3 antibodies GMB301 and H4B-121-emb were serially diluted from 0.5 μg/ml to 1 ng/ml (3 nM to 6.5 pM) and incubated 1 hour at 37° C.

B1: GMB301 (chimeric low-fucose anti-human HER3 antibody) (antibody, human IgG1, kappa, V domains shown)
VH: EVKLVESGGGLVQPGGSLKLSCAASGFTFSSYTMSWVRQTPEKRLEWVAYISDGGGVTYYPDTIKGRFTISRDNAKNTLYLQMSSLKSEDTAMYYCARDRYGLFAYWGQGTLVTVSA
VL: DIVMTQSQKFMSTSVGDRVSITCKASQNVGIAVAWYQQKPGQSPKLLIYSASNRYTGVPDRFTGSGSGTDFTLTISNMQSEDLADYFCQQYSNYPYTFGGGTKLEIKR
modifications: low-fucose N-glycan (produced in YB2/0 cells)
notes: also called mAb GMB301; low-fucose chimerized antibody GMB301
- EC50 [1]: 190 pM
- EC50 [2]: 190 pM
